“And” between values parts separate entries of the source, which are not always exact repeats. Identical values can stand only once.
Conditions: Bos taurus, pH 7, 25 °C, CD, MOPS 30 mM, reversible: yes (partial), whole UniProt chain shown

B1: Cytochrome b5 wild type, P00171 (protein)
chain: MAEESSKAVKYYTLEEIQKHNNSKSTWLILHYKVYDLTKFLEEHPGGEEVLREQAGGDATENFEDVGHSTDARELSKTFIIGELHPDDRSKITKPSESIITTIDSNPSWWTNWLIPAISALFVALIYHLYTSEN
denaturant midpoint (higher = more stable) (GdnHCl): 1.27 M | unfolding free energy (GdnHCl): 3.2 kcal/mol | denaturant midpoint (higher = more stable) (GdnSCN): 1.52 M and 2.04 M

From FireProtDB (doi:10.1093/protein/gzi067)
